The labels stand for the following.
B1: NTR1 split-YFP fusion for BiFC (NTR1-nYFP) (natural protein)
chain: not shown
B2: ILP1 split-YFP fusion for BiFC (ILP1-nYFP and ILP1-cYFP) (natural protein)
chain: MGSNRPKNFRRRGDDGGDEIDGKVATPSSKPTSTLSSSKPKTLSASAPKKKLLSFADDEEEEEDGAPRVTIKPKNGRDRVKSSSRLGVSGSSHRHSSTKERRPASSNVLPQAGSYSKEALLELQKNTRTLPYSRSSANAEPKVVLKGLIKPPQDHEQQSLKDVVKQVSDLDFDEEGEEEQHEDAFADQAAIIRAKKERMRQSRSAPAPDYISLDGGIVNHSAVEGVSDEDADFQGIFVGPRPQKDDKKGVFDFGDENPTAKETTTSSIYEDEDEEDKLWEEEQFKKGIGKRMDEGSHRTVTSNGIGVPLHSKQQTLPQQQPQMYAYHAGTPMPNVSVAPTIGPATSVDTLPMSQQAELAKKALKDNVKKLKESHAKTLSSLTKTDENLTASLMSITALESSLSAAGDKYVFMQKLRDFISVICDFMQNKGSLIEEIEDQMKELNEKHALSILERRIADNNDEMIELGAAVKAAMTVLNKHGSSSSVIAAATGAALAASTSIRQQMNQPVKLDEFGRDENLQKRREVEQRAAARQKRRARFENKRASAMEVDGPSLKIEGESSTDESDTETSAYKETRDSLLQCADKVFSDASEEYSQLSKVKARFERWKRDYSSTYRDAYMSLTVPSIFSPYVRLELLKWDPLHQDVDFFDMKWHGLLFDYGKPEDGDDFAPDDTDANLVPELVEKVAIPILHHQIVRCWDILSTRETRNAVAATSLVTNYVSASSEALAELFAAIRARLVEAIAAISVPTWDPLVLKAVPNTPQVAAYRFGTSVRLMRNICMWKDILALPVLENLALSDLLFGKVLPHVRSIASNIHDAVTRTERIVASLSGVWTGPSVTRTHSRPLQPLVDCTLTLRRILEKRLGSGLDDAETTGLARRLKRILVELHEHDHAREIVRTFNLKEAV

One assay has as its target PRP43b-cYFP (Arabidopsis thaliana, UniProt O22899 1-729). Kind of assay: split reporter.
Assay [1] addresses B2. Kind of assay: split reporter.

Results on 2 molecules are retold here after paper PMC6736097 (Nucleic Acids Research, 2019).

Chain of PRP43b-cYFP (O22899 whole entry): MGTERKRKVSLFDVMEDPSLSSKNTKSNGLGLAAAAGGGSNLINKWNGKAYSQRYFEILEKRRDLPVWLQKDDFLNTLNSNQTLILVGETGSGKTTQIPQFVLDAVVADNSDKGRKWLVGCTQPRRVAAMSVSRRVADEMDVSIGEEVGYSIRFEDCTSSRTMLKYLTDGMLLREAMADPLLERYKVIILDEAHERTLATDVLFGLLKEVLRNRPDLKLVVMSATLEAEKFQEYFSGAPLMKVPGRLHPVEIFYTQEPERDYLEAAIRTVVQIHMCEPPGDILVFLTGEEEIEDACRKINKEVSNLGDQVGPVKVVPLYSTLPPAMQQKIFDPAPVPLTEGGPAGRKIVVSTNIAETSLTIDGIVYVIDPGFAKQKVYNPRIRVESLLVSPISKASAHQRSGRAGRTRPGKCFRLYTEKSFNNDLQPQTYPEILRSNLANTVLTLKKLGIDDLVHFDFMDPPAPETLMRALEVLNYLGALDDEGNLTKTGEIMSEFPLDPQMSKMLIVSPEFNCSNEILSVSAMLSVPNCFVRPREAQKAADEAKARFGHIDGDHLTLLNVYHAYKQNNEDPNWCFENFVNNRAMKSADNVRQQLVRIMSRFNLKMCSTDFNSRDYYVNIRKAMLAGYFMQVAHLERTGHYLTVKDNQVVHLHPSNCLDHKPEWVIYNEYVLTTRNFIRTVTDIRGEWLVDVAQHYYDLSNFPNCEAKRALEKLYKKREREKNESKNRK

With B1, the “positive BiFC ratio (percent of protoplasts)” value turned out to be 14.7% in the assay with PRP43b-cYFP and 41.4% in assay [1]. In the case of B2, the “positive BiFC ratio (percent of protoplasts)” value with PRP43b-cYFP was found to be 1.4%.
